Experimental data published in patent US20260146089A1 (published 2026).
Read-outs that look alike come from different tables or passages of the source.

How the values were obtained:
[1] = biological target: T1, human CD3ε on the cell surface (Jurkat cells, Th1 cells) (UniProt P07766 23-207); assay: FACS Jurkat
[2] = biological target: T1, human CD3ε on the cell surface (Jurkat …); assay: FACS Jurkat; remark: listed apart in the source
[3] = biological target: T2, Jurkat (UniProt P07766 23-207); assay: FACS Jurkat
[4] = biological target: T2, Jurkat; assay: FACS Jurkat; remark: listed apart in the source
[5] = biological target: CD3ε/δ heterodimer; assay: sensorgram

| EC50 [1] [nM] | EC50 [2] [nM] | EC50 [3] [nM] | EC50 [4] [nM] | koff [5] [s⁻¹] | Binder |
| --- | --- | --- | --- | --- | --- |
| 0.68 | 0.68 |  |  |  | 08B12 (antibody, V domains shown) VH: EVQVVESGGGLVKPGGSLRLSCVASGFTFKKYNMNWVRQAPGKGLEWVSSISSSSTYIYYADSVKGRFTISRDNAKNSLNLQMNSLRAEDTAVYYCAGGGYFDYWGQGTLVTVSS |
| 0.59 | 0.59 |  |  |  | 13D02 (antibody, V domains shown) VH: EVQLVESGGGLVKPGGSLRLSCAASGFTFSRFNMNWVRQTPGKGLEWVSSISSRSSYIYYADSVKGRFTISRDNAKKSLYLQMNSLRAEDTAVYYCAGGGYFDYWGQGTLVTVSS VL: not shown |
|  |  | 0.55 | 0.55 |  | OKT3 (antibody, V domains shown) VH: QVQLVQSGGGVVQPGRSLRLSCKASGYTFTRYTMHWVRQAPGKGLEWIGYINPSRGYTNYNQKFKDRFTISRDNSKNTAFLQMDSLRPEDTGVYFCARYYDDHYCLDYWGQGTPVTVSS VL: DIQMTQSPSSLSASVGDRVTITCSASSSVSYMNWYQQTPGKAPKRWIYDTSKLASGVPSRFSGSGSGTDYTFTISSLQPEDIATYYCQQWSSNPFTFGQGTKLQITR |
| 34 | 34 |  |  |  | 12C08 antibody (antibody, V domains shown) VH: EEQLVESGGGLVQPGGSLRFSCEVSGFTFRSYWMSWVRQAPGKGLEWVANIKEDGSEKYYVDSVKGRFTISRDNAKNSLYLQMNSLRAEDTAVYYCARERREGYFDQWGQGTLVTVSS VL: DIQMTQSPSTLSAFVGDRVTITCRASQSIGSWLAWYQQKPGKAPDLLIYKASSLESGVPSRFSGSGSGTEFTLTISSLQPDDFATYYCQQYKSYSWTFGQGTKVEIK |
| 1.3 | 1.3 |  |  |  | 01F05 C01 (antibody, V domains shown) VH: QVQLVQSGAEVKKPGASVKVSCKASGYTFTAYYIHWVRQAPGQGLEWMGWINPNSGGTNYAQMFQGRVTMTRDTSISAAYMELSRLSSDDTAVYYCTRGTPRYNWKSYNYGMDVWGQGTTVTVSS VL: not shown |

The next lines start with the binder.

| Binder | EC50 [1] [nM] | EC50 [2] [nM] | EC50 [3] [nM] | EC50 [4] [nM] | koff [5] [s⁻¹] |
| --- | --- | --- | --- | --- | --- |
| 11A10 (antibody, V domains shown) VH: EVQLVESGRGLVQPGGSLRLSCAASGFTFSSYWMSWVRQAPGKGLEWVANIKEDGSEKYYVDSVKGRFTISRDNAKNSLYLQMNSLRAEDTAVYYCARERREGYFDYWGQGTLVTVSS VL: not shown | 36 | 36 |  |  |  |
| 11B11 (antibody, V domains shown) VH: EVQLVESGGGLVQPGGSLRLSCAASGFTFSSYWMTWVRQAPGKGLEWVANIKEDGSEKYYVDSVKGRFTISRDNAKNSLYVQMNSLRAEDTAIYYCARERREGYFDYWGQGTLVTVSS VL: DIQMTQSPSILSASVGDRATITCRASQRISTWLAWFQQKPGKAPKLLIYKASSLESGVPSRFSGSGSGTEFTLTISSLQPDDFATYYCQQYKSYSWTFGQGTKVEIK | 48 | 48 |  |  |  |
| 07B09 (antibody, V domains shown) VH: EVQLVESGGGLVQPGGSLRLSCAASGFTFSSYWMTWVRQAPGKGLEWVANMRKDGSEKYYVDSVKGRFTISRDNAKNSLYLHMNSLRAEDTAVYYCARERSTGYFDYWGQGTLVIVSS VL: DIQMTQSPSTLSASVGDRVTITCRASQRISTWLAWYQQKAGKAPKLLIYKASSLESGVPSRFSGSGSGTEFTLTIRSLEPDDFATYYCQQYISYTWTFGQGTKVEIK | 25 | 25 |  |  |  |
| 13E03 antibody (antibody, V domains shown) VH: EIQLVESGGGLVQPGGSLRLSCAASGFTFSSYWMSWVRQTPGKGLEWVANIKEDGSEKYHVDSVKGRYTISRDNAKNSLYLQMSSLRADDTAVYYCARERREGYFDYWGQGTVVTASS VL: DIQMTQSPSTLSASVGDRVTITCRASQSIGRWLAWYQQKPGKAPDLLIYKASSLESGVPSRFSGGGSGTEFTLTISSLQPDDFATYYCQQYKSYSWTFGQGTKVEVK | 35 | 35 |  |  |  |
| 08G12 (antibody, V domains shown) VH: EVQLVESGGGLVQSGGSLRLSCAASGFTFSRFWMTWVRQAPGKGLEWVANIKEDGSEKYYVDSVKGRFTISRDNTKNSLYLQMNSLRAEDTAVYYCARERREGYFDYWGQGTLVTVSS VL: not shown | 20 | 20 |  |  |  |
| 06G07 A04 (antibody, V domains shown) VH: EVQLVESGGGLVQPGGSLRLSCAASGFTFSSFWMSWVRQAPGKGLEWVANIKEDGSEKYYVDSVKGRFTISRDNAKNSLFLQMNSLRAEDTAVYYCARERRTGYFDYWGQGTLVTVSS VL: DIQMTQSSSTLSASVGDRVTITCRASQSIGSWLAWFQQKPGKAPKLLIYKASSLESGVPSRFSGSGSGTEFTLTISSLQPDDFAIYYCQQYKSYSWTFGQGTKVEIK | 27 | 27 |  |  |  |
| 13E03 (antibody, V domains shown) VH: EIQLVESGGGLVQPGGSLRLSCAASGFTFSSYWMSWVRQTPGKGLEWVANIKEDGSEKYHVDSVKGRYTISRDNAKNSLYLQMSSLRADDTAVYYCARERREGYFDYWGQGTVVTASS VL: DIQMTQSPSTLSASVGDRVTITCRASQSIGRWLAWYQQKPGKAPDLLIYKASSLESGVPSRFSGGGSGTEFTLTISSLQPDDFATYYCQQYKSYSWTFGQGTKVEVK |  |  |  |  | 0.00198 |
| 12C08 (antibody, V domains shown) VH: EEQLVESGGGLVQPGGSLRFSCEVSGFTFRSYWMSWVRQAPGKGLEWVANIKEDGSEKYYVDSVKGRFTISRDNAKNSLYLQMNSLRAEDTAVYYCARERREGYFDQWGQGTLVTVSS VL: DIQMTQSPSTLSAFVGDRVTITCRASQSIGSWLAWYQQKPGKAPDLLIYKASSLESGVPSRFSGSGSGTEFTLTISSLQPDDFATYYCQQYKSYSWTFGQGTKVEIK |  |  |  |  | 0.000334 |
| 01B08 B01 (antibody, V domains shown) VH: QVQLVQSGAEVKKPGASVKVSCKAAGYTFTGYYMHWVRQAPGQGLEWMGWINPYRSGTNFAQKFQDRVTMTRDTSISTAYMELSSLSSDDTAIYYCARGAGTTFYNAFDIWGQGTMVTVSS VL: DIQMTQSPSAMSASVGDRVTITCRASQGINNYLAWFQQKPGKVPKRLIYAASSLQSGVPSRFSGSGSGTEFTLTISSLQPEDFATYYCLQHNRYPFTFGPGTKVDIK | 23 | 23 |  |  |  |
